Bridges are numbered along the chain shown (N, C = ends). Roman numbers before positions name the chains, in order.
Molecular target: T1, IL-1RAcP/ST2/IL-33 ternary complex (Homo sapiens, UniProt O95760+Q01638)
T1 construct: included the extracellular domains, K19-F328 and S21-E359, respectively; the cleaved mature proteins, S112-T270, A117-S269, and R2-S310, respectively; purchased Sino Biologicals ST2 10105-HCCH; IL1RAcP 10121-H08H; IL-33 10368-HNAE; host or cells: ST2 and IL1RAcP: HEK293; IL-33: E. coli
T1 sequence (Q01638 19-328 isoform Q01638-2): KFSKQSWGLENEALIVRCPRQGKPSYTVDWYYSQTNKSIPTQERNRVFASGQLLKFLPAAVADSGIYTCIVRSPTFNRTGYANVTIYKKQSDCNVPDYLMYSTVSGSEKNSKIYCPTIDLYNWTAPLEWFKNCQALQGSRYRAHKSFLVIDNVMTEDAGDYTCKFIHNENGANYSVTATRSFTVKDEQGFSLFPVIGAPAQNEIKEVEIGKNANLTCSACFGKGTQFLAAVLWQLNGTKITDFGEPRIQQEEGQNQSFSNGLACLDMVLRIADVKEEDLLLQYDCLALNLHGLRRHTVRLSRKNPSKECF
T1 sequence (O95760 112-270): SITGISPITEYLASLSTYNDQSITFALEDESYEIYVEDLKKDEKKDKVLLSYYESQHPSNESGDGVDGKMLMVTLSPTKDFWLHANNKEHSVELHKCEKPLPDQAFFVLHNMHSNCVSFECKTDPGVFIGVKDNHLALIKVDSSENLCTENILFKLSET
Assay: Crosslinking assay of ternary complex (trimer) formation with recombinant IL-33, ST2 and IL-1RAcP
Type: biochemical
Experimental: MSTOP dose curves were performed with a crosslinking assay. Recombinant IL-33, ST2, and IL-1RAcP were combined as described above and incubated at RT for 30 m in PBS or treated with 10 μM of 3WJ scaffold, WT peptides, or MSTOP in a dose range of 10 μM to 1 nM (1:10 serial dilution). Following incubation, 1 μL of 2.5 mM Disuccinimidyl suberate (DSS, 83 μM) homobifunctional crosslinker was added and reactions were incubated for […] at RT., then quenched with 1 μL of 1 M Tris-HCl. Samples were then prepared for electrophoresis.
The native receptor has a KD value of 10 μM illustrative of the fact that the interaction is weak and transient (FIG. 3A). […] The prototype MSTOP was finally assessed for bioactivity via prevention of IL-33/ST2 signaling activation. The MSTOP was first tested in vitro with recombinant ST2, IL-33, and IL-1RAcP incubated together in its endogenous 1:1:1 stoichiometry for 30 minutes. Reactions were then treated with DSS homobifunctional NETS-based crosslinker (final concentration ˜85 μM) to tether formed trimers. Trimer resolved at the predicted 120 kDa in semi-native conditions, while unbound IL-1RAcP resolved at 50 kDa. Quantification of IL-1RAcP at 120 kDa was normalized against total lane IL-1RAcP input, with the untreated trimer control representing 100% trimerization. […]

- reduction of trimer formation (1 μM treatment): approximately 40%
- reduction in trimer formation (10 μM treatment, DSS crosslinking western blot): 70%
Substance: MSTOP: 3WJ DNA scaffold whose three DBCO staple strands carry cyclized azidolysine IL-1RAcP hotspot peptides; decoy for IL-33/ST2 (peptide 1 Ac-CKEYGIQRITC-NH2; peptide 2 Ac-AKVGSPKNAVPPC-NH2; peptide 3 Ac-CKGEVAKAAKVKC-NH2; disulfide I:1-I:11, III:1-III:13; thioether II:1-II:13; not fully specified (some residues); also: three peptides held on a 3-way junction DNA scaffold via DBCO staple strands)
